Measurements published in PMC11968938 (Scientific Reports, 2025).
Read-outs that look alike come from different tables or passages of the source.

B1: BBH37_(131-312) (domain or fragment, B. burgdorferi B31, UniProt O50692 131-312, looked up)
chain: FFPSTEEEKQADKAIKDIENLIGESGFPELIENVCSLKHEYTLIRSDFYDVITKIQNKKISLMKNSHNNRNKIRELVQLQNNLKIGDELDKIMGCIDTAEQEIRSAAFFFDEAKESLKEGIIKRLEKSKNRAASQLSKKALNRAEDALRCLENYSSKKGEAIGRRSFIKEVVEQAKNALSKS
modifications: Cys165 in a disulfide bond with Cys165 of the other protomer
B2: BBH37_(119-312) (domain or fragment, B. burgdorferi B31, UniProt O50692 119-312, looked up)
chain: EHNQKKEIKEEDFFPSTEEEKQADKAIKDIENLIGESGFPELIENVCSLKHEYTLIRSDFYDVITKIQNKKISLMKNSHNNRNKIRELVQLQNNLKIGDELDKIMGCIDTAEQEIRSAAFFFDEAKESLKEGIIKRLEKSKNRAASQLSKKALNRAEDALRCLENYSSKKGEAIGRRSFIKEVVEQAKNALSKS
modifications: Cys165 in a disulfide bond with Cys165 of the other protomer

Tests used:
[1] = target: the molecule itself; assay: crystal structure
[2] = target: the molecule itself; assay: crystal structure; remark: listed apart in the source

| Protein | stoichiometry N [1] | stoichiometry N [2] |
| --- | --- | --- |
| B1 | 2 | – |
| B2 | – | 2 |
